In patent publication US20190083583A1 (Alexion, published 2019):

Target: M6P receptor on the surface of human MPS IIIB skin fibroblasts (human)
Assay: cell-based or functional assay

B1: recombinant human N-acetyl-alpha-D-glucosaminidase (rhNaGlu) produced in transgenic avian (Gallus) egg white (enzyme)
chain: DEAREAAAVRALVARLLGPGPAADFSVSVERALAAKPGLDTYSLGGGGAARVRVRGSTGVAAAAGLHRYLRDFCGCHVAWSGSQLRLPRPLPAVPGELTEATPNRYRYYQNVCTQSYSFVWWDWARWEREIDWMALNGINLALAWSGQEAIWQRVYLALGLTQAEINEFFTGPAFLAWGRMGNLHTWDGPLPPSWHIKQLYLQHRVLDQMRSFGMTPVLPAFAGHVPEAVTRVFPQVNVTKMGSWGHFNCSYSCSFLLAPEDPIFPIIGSLFLRELIKEFGTDHIYGADTFNEMQPPSSEPSYLAAATTAVYEAMTAVDTEAVWLLQGWLFQHQPQFWGPAQIRAVLGAVPRGRLLVLDLFAESQPVYTRTASFQGQPFIWCMLHNFGGNHGLFGALEAVNGGPEAARLFPNSTMVGTGMAPEGISQNEVVYSLMAELGWRKDPVPDLAAWVTSFAARRYGVSHPDAGAAWRLLLRSVYNCSGEACRGHNRSPLVRRPSLQMNTSIWYNRSDVFEAWRLLLTSAPSLATSPAFRYDLLDLTRQAVQELVSLYYEEARSAYLSKELASLLRAGGVLAYELLPALDEVLASDSRFLLGSWLEQARAAAVSEAEADFYEQNSRYQLTLWGPEGNILDYANKQLAGLVANYYTPRWRLFLEALVDSVAQGIPFQQHQFDKNVFQLEQAFVLSKQRYPSQPRGDTVDLAKKIFLKYYPRWVAGSW
modifications: N-linked glycans carrying mannose-6-phosphate (3.2 moles of M6P per mole of protein), mannose and GlcNAc; sites not stated
With B1 the “NaGlu enzymatic activity in human MPS IIIB fibroblasts after 24 h with 0.3 ug/mL rhNaGlu (cellular uptake)” value was ~50 % of wild-type fibroblast activity, the “NaGlu enzymatic activity in human MPS IIIB fibroblasts after 24 h with 1 ug/mL rhNaGlu (cellular uptake)” value was ~4 fold of wild-type fibroblast activity and the “NaGlu enzymatic activity in human MPS IIIB fibroblasts after 24 h with 30 ug/mL rhNaGlu (cellular uptake)” value was ≥ 40 fold of wild-type fibroblast activity.
